# Measured values reported in patent publication CN109666070A (UNIV TSINGHUA, dated 2019).
# Tests used:
# [1] = target: T1, 生物素标记的RBD融合蛋白 (MERS-CoV, UniProt K9N5Q8 367-606); assay: affinity measurement with biotin-labelled RBD fusion protein; method not stated
# [2] = target: T1, 生物素标记的RBD融合蛋白; assay: as above; remark: listed apart in the source
binder,measurement,setting,value
"单克隆抗体MERS-4 (antibody, V domains shown) VH: EVQLVESGGGLVQPGRSLRLSCAASGFTFSNYAMYWVRQAPGKGLEWVALISYDISTDYYADSVKGRFTISRDNSKNTIYLQMNNLRTEDTALYYCAGNDYWGQGTLVTVSS VL: QSVLTQSPSASGTPGQRVTISCSGSSSNIGNNYVYWYQQLPGTAPKLLIYWNDQRPSGVPDRFSGSKSGTSASLAISGLRSEDEADYYCAAWDDSLSGAVFGGGTQLTVLG",Ka,[1],8e+08 M⁻¹
same,Kd,[1],1.25 nM
same,koff,[1],0.00101 s⁻¹
same,kon,[1],805000 M⁻¹ s⁻¹
same,fold of Kd against that of MERS-4V2,[2],1.71 fold
